Data as given in article PMC12755392, “p62 sorts Lupus La and selected microRNAs into breast cancer-derived exosomes”.

T1: La 1-408 (full-length Lupus La) (Homo sapiens, UniProt P05455 1-408)
T1 sequence: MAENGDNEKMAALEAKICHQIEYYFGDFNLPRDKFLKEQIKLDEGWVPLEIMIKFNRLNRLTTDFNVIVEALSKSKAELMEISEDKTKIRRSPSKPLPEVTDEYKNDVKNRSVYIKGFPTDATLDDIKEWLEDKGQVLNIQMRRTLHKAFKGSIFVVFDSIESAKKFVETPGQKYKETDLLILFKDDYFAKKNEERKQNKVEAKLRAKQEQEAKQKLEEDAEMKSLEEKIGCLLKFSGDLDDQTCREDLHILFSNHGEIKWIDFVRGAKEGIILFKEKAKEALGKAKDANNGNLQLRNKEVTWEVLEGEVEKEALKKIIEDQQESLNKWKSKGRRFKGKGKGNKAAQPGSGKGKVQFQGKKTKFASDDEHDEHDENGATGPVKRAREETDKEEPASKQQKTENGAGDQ


Biological target: T1, La 1-408 (full-length Lupus La)
Assay: EMSA; EMSA: 1 nM miRNA, 25 mM Tris-HCl pH 8.0, 100 mM KCl, 1.5 mM MgCl2, 1 mM DTT, 0.05% NP-40, 5% glycerol, 50 ug/ml heparin, 1 U/ul RiboLock; 30 C 30 min then 4 C 10 min; Hill fit
Settings: protein: recombinant; tags: C-terminal Nluc-FLAG-His6; label: 5' IRD800; single strand

Binder | Kd [nM]
UGAUAUGUUUGAUAUAUUAGGU (ssRNA) [miR-190] | 1150
UGGAGUGUGACAAUGGUGUUUG (ssRNA) [miR-122 (hsa-miR-122-5p?)] | 14.1
